Seven molecules from patent publication US20230035798A1 (CAPELLA BIOSCIENCE, published 2023) can be followed below.

The labels stand for the following.
T1: membrane LIGHT A190S (human, UniProt O43557 1-240)
T1 chain: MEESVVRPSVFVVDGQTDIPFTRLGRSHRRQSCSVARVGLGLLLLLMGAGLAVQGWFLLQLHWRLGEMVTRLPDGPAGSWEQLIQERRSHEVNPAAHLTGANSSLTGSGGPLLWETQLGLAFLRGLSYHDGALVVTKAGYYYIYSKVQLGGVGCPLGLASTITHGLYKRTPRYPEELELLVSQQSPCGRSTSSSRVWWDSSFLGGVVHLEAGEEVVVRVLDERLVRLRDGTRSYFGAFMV

T2: membrane LIGHT V196A (human, UniProt O43557 1-240)
T2 chain: T1 chain with S190A, V196A

T3: membrane LIGHT W198A (human, UniProt O43557 1-240)
T3 chain: T1 chain with S190A, W198A

B1: 3A07 (antibody, human IgG4, V domains shown)
VH: QVQLQQSGAELVRPGAPVTLSCKASDYTFTDSEIHWVKQTPVHGLEWIGEIDPETGGTAYNQKFKGKATLTADKSSSTAYMELRSLTSEDSAVYYCSRETDYFFDYWGQGTTLTVSS
VL: ENVLTQSPAIMSASPGEKVTMTCSASSSVSYMYWYQQRPGSSPRLLIYDTSNLASGVPVRFSGSGSGTSYSLTISRMEAEDAATYYCQQWSSYPLTFGSGTKLEIK
notes: chimeric human IgG4 (S-to-P, L-to-E at 248), human CL; also called Parental 3A07
B2: 3B04 (antibody, human IgG4, V domains shown)
VH: B1 VH with S7P, P17S, D26G, S32Y, I34M, G57D, N61S, L83F
VL: DIQMTQTPASLSASVGETVTITCGASENIYGALNWYQRKQGKSPQLLIYGATNLADGMSSRFSGSGSGRQYSLKISSLHPDDFATYYCQNVLTTPWTFGGGTKLEIKR
notes: chimeric: mouse variable domains on human IgG4 HC (S-to-P and L-to-E at 248) and human CL; also called Parental 3B04; 3B04 chimeric
B3: 3C10 (antibody, human IgG4, V domains shown)
VH: B1 VH with Q1E, P17S
VL: B1 VL with E1D, N2V, L4M, S7T, R38K, S99A, I105L
notes: chimeric human IgG4 (S-to-P, L-to-E at 248), human CL; also called Parental 3C10
B4: 3D12 (antibody, human IgG4, V domains shown)
VH: B1 VH with S7P, P17S
VL: B2 VL with T7S, F83V, T93S
notes: chimeric: mouse variable domains on human IgG4 HC (S-to-P and L-to-E at 248) and human CL; also called Parental 3D12; 3D12 chimeric
B5: 3E09 (antibody, V domains shown)
VH: EVQLVESGGGLVKPGGSLKLSCEASGFTFSDYYMYWVRQTPEKRLEWVAAIGDGGIYTYYADTVKGRFTISRDNAKNILYLQMSSLKSNDTAMYYCARGTGDGFAYWGQGTLVTVS
VL: DIVLTQSPASLAVSLGQRATISCRASESVDSYGNSFMHWYQQKPGQPPKLLIYLASNLESGVPARFSGSGSRTDFTLTIDPVEADDAATYYCQQNNEDPYTFGGGTKLEIK
notes: chimeric human IgG4 (S-to-P, L-to-E at 248), human CL; also called Parental 3E09
B6: 2E08 (antibody, human IgG4, V domains shown)
VH: QVQMKESGAELVRPGVSVKISCKGSGYTFTDYAIHWVKQSHAKTLEWIGVISTYYGDASYNQKFKGKATMTVDKSSSTAYMELARLTSDDSAIYYCARSRGEYGNYDAMDYWGQGTSVTVSS
VL: DIVLTQSPASLAVSLGQRATISCKASQSVDYDGDSYMNWYQQKPGQPPKLLIYAASNLESGIPARFSGSGSGTDFTLNIHPVEEEDAATYYCQQSNEDPLTFGAGTKLELK
notes: chimeric human IgG4 (S-to-P, L-to-E at 248), human CL; also called Parental 2E08
B7: 2B11 (antibody, human IgG4, V domains shown)
VH: B6 VH with Q1E, M4L, K5V, T44S, D89E
VL: B5 VL with L54R, V62I, D80N, A87V, N95S
notes: chimeric human IgG4 (S-to-P, L-to-E at 248), human CL; also called Parental 2B11

Numbering of substitutions follows the chain as printed.

One test has as its target T4, human LIGHT (TNFSF14), full length, membrane-bound (214E allele) (human, UniProt O43557 1-240).
T4 construct: also called membrane LIGHT; human membrane LIGHT
The test can be described thus: flow cytometry, transfected HEK293FF, mAb at EC50. The method, then:
(§1) The day of transfection the cells were seeded in a 24-well plate at 0.6×10⁶ cells/well. Lipofectamine 2000 (ThermoFisher scientific), 3 μl, was mixed with 50 μl OptiMEM medium (GIBCO) and then added to 50 μl Opti-MEM medium containing 3 ug plasmid DNA and incubated for 20 min at RT to form DNA-Lipofectamine 2000 complexes which were then added to the HEK293FF cells and incubated at 37° C., 5% CO₂ for 24 hours. For each construct, in duplicate, 0.60×10⁶ cells/well were used in a 96 well round bottom plate. Cells were centrifuged for 3 minutes at 300×g at 4° C., the supernatant discarded and the cells washed with 150 μl FACS buffer (0.5% FBS in phosphate buffered saline). This process was repeated 3 times. […] The wells were washed 3 times as above and 50 μl/well of goat anti-human IgG FITC (1:1500 dilution in FACS buffer, SIGMA F9512-2ML) or goat anti-mouse APC (1/500 dilution in FACS buffer, BDBioscience 550826), as appropriate, was added to the wells and incubated for 30 min at 4° C. protected from the light, with shaking. The cells were then washed as above, resuspended in 100 μl of FACS buffer and binding of the antibodies to the constructs was measured using flow cytometry and a total of 10,000 cells were acquired for each sample. Controls of buffer and secondary antibody only as well as HEK293FF non transfected cells were also used.
As for B1, the “binding, % of WT” value worked out at 100%.
As for B2, the “binding, % of WT” value turned out to be 100%.
Regarding B3, the “binding, % of WT” value stood at 100%.
For B4, the “binding, % of WT” value is 100%.
In the case of B5, the “binding, % of WT” value amounted to 100%.
As to B6, the “binding, % of WT” value is 100%.
For the molecule B7, the “binding, % of WT” value turned out to be 100%.

Another test has as its target T1, membrane LIGHT A190S. Nature of the test: flow cytometry, transfected HEK293FF, mAb at EC50. As to the method:
as §1
Take B1: the “binding, % of WT” value came to 47%.
As to B2, the “binding, % of WT” value was 68%.
With B3, the “binding, % of WT” value came to 40%.
As to B4, the “binding, % of WT” value turned out to be 82%.
On to B5, for which the “binding, % of WT” value was 97%.
As for B6, the “binding, % of WT” value is 93%.
On to B7, for which the “binding, % of WT” value was 52%.

Another test concerns the target T2, membrane LIGHT V196A. Nature of the test: flow cytometry, transfected HEK293FF, mAb at EC50. As to the method: as §1
B1: the “binding, % of WT” value was determined as 77%.
B2: the “binding, % of WT” value stood at 80%.
As to B3, the “binding, % of WT” value is 78%.
Regarding B4, the “binding, % of WT” value amounted to 70%.
B5: the “binding, % of WT” value was 34%.
In the case of B6, the “binding, % of WT” value was determined as 99%.
Consider B7, for which the “binding, % of WT” value came out at 73%.

The target of a further test is T3, membrane LIGHT W198A. Nature of the test: flow cytometry, transfected HEK293FF, mAb at EC50. As to the method:
as §1
Regarding B1, the “binding, % of WT” value was determined as 82%.
Turning to B2, the “binding, % of WT” value was 81%.
For B3, the “binding, % of WT” value came out at 86%.
As for B4, the “binding, % of WT” value came to 83%.
Still for that read-out and setting: the result for B5 reads 48%.
Regarding B6, the “binding, % of WT” value is 83%.
The same measure, in the same setting: the value for B7 was 77%.

For a further test, the target named is T4, human LIGHT (TNFSF14), full length, …. Nature of the test: DcR3-His (1 nM) competition, EL4-LIGHT, flow cytometry; 100 nM. The method, then: EL4-LIGHT cells (0.25×10⁶) were preincubated with anti-membrane LIGHT mAbs (0-300 nM) for 15 min at 4° C. followed by incubation with DcR3-His tagged (1 nM, Creative BioMart; ref: TNFRSF6B-552H, lot: 962512) for 30 min at 4° C. The samples were then incubated with mouse anti-histag antibody (diluted 1:500, Biolegend, cat. no. 652502) for 30 minutes at 4° C., followed by incubation with anti-mouse APC (dil 1:500, BDBiosciences, cat. no. 550826) for 30 minutes at 4° C. The tubes were washed three times after each of the detection antibody stages and flow cytometry analysis was performed. Specific mean fluorescence intensity (MFI) obtained from the binding of DcR3-His to LIGHT on EL4 cells were used to determine the levels of competition binding.
In humans, LIGHT is neutralized by DcR3, a unique soluble member of the TNFR superfamily, which tightly binds LIGHT (both soluble and membrane forms) and inhibits its interactions with HVEM and LTβR. A major binding determinant for DcR3 neutralization is the region T170-E178 on LIGHT (Liu et al. Structure 2014: 9; 1252-1262). […] In contrast the anti-LIGHT mAb F19, (from EP2292663) which binds both soluble LIGHT and membrane LIGHT equally well completely displaces DcR3 from binding to membrane LIGHT highlighting a surprising an important functional difference between the anti-membrane LIGHT mAbs of this invention and other neutralizing anti-LIGHT mAbs that have been raised against or screened against soluble LIGHT.
Target sequence in this assay (O43557 whole entry K214E): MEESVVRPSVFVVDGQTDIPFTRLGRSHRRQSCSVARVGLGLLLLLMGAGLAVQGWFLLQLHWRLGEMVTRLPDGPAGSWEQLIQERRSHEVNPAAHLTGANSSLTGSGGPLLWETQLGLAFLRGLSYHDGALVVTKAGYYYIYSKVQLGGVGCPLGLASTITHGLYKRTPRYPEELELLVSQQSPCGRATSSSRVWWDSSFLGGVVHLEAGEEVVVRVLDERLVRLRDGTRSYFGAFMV
Take B1: the “DcR3-His binding, % of irrelevant mAb” value is 64.2%.
Regarding B2, the “DcR3-His binding, % of irrelevant mAb” value worked out at 75.8%.
For B3, the “DcR3-His binding, % of irrelevant mAb” value came out at 63.8%.
Same read-out and setting: the value for B4 was 80.3%; that for B5 was 65%.
B6: the “DcR3-His binding, % of irrelevant mAb” value was found to be 53.7%.
Take B7: the “DcR3-His binding, % of irrelevant mAb” value is 70.6%.

A further test shares this target. Nature of the test: competition with biotin-HVEM-Fc, EL4-LIGHT cells, flow cytometry. The method, then:
(§2) Biotin-LTβR-Fc and biotin-HVEM-Fc were prepared using a kit purchased from ThermoFisher (EZ-Link NHS-LC-Biotin; cat. no. 21336) according to the manufacturer's instructions. […] The diluent used was FACS buffer. The cells were washed 3 times with FACS buffer and biotin-LTβR-Fc and biotin-HVEM-Fc binding detection to cells was performed with streptavidin-APC (1:400; BioLegend cat. No. 405207) for 30 min at 4° C. and fluorescence read in the RL-1 channel. The anti-HEL mAb 2A11 was utilised as a background control.
(§3) The above experiment was repeated utilising LIGHT stably expressed on EL4-cells and the results depicted in Table 11B.
Target sequence in this assay (O43557 whole entry K214E): as above
As for B1, the IC50 worked out at 0.32 nM.
Regarding B2, the concentration for half-maximal inhibition (IC50) amounted to 0.13 nM.
For the molecule B3, the IC50 came to 0.8 nM.
On to B4, for which the IC50 was determined as 0.16 nM.
Molecule B5 had an IC50 of 24.1 nM.
Consider B6, for which the IC50 is 4.3 nM.
The molecule B7 returned an IC50 of 0.34 nM.

A further test shares this target. Nature of the test: competition with biotin-LTβR-Fc, EL4-LIGHT cells, flow cytometry. The method, then: as §2, §3
Target sequence in this assay (O43557 whole entry K214E): as above
The molecule B1 registered a half-maximal inhibitory concentration (IC50) of 0.35 nM.
For B2, the IC50 is 0.19 nM.
Molecule B3 gave an IC50 of 0.86 nM.
Consider B4, for which the IC50 was 0.19 nM.
Still for that read-out and setting: the result for B5 reads 38 nM; that for B6, 5.7 nM; that for B7, 0.36 nM.
